The target of experiment [1] is human IGF-1 receptor (human) (UniProt P08069). The experiment can be described thus: competition SPA, [125I]IGF-1.
In experiment [2] the target is human insulin receptor (human) (UniProt P06213). The experiment can be described thus: competition SPA, [125I]insulin.
A further experiment has as its target type A insulin receptor (UniProt P06213). The experiment can be described thus: cell-based or functional assay.
The target in experiment [3] is human IGF-1 receptor (human) (UniProt P08069). The experiment can be described thus: cell-based or functional assay.
The target in a further experiment is type B insulin receptor (UniProt P06213). The experiment in a line: cell-based or functional assay.

Several values for one entry are separate records, joined by “and”; a condition that tells them apart may be missing. Equal values may be shown once.

As a reminder, the IC50 is the concentration that gives 50% inhibition. A higher IC50 goes with weaker potency in that assay.

In experiment [1], “IGF-1 A:In (1-17)-IGF-1 B(18-30) (from UniProt P05019 18-30) (ligand)” showed a % IGF-1 (in test) of 0.9% and a % native IGF-1 activity (0.55 nM) of 0.9%. Further, in experiment [2], the % insulin (in test) is 11.3% and 20.1%; the % native insulin activity (0.6 nM) is 22.5% and 24.2%; the IC50 was 2.67 nM and 2.48 nM.
As to “MIU-68: B2, B22-PEG10K di-PEGylated MIU-35 (ligand)”, the % Insulin Activity (in vitro, assay not named) with type A insulin receptor was 0.4%; in experiment [3], less than 0.1%; in the experiment with type B insulin receptor, 0.1%.
The like results for “MIU-67: B2, C8-PEG10K di-PEGylated MIU-35 (ligand)” were, in that order, 0.2%, less than 0.1% and 0.1%.
“MIU-69: B2, A14-PEG10K di-PEGylated MIU-35 (ligand)”: the % Insulin Activity (in vitro, assay not named) with type A insulin receptor was 1%; in experiment [3] it was less than 0.1%; with type B insulin receptor it was 0.5%.
